Assay: label from the status in PepcDB records
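Note: failed if final PepcDB status was selected cloned or expressed and not failed if soluble or beyond.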

| Sequence | protein production |
| --- | --- |
| MLYFDHWTKVPADIWRWPNFSPEEIACRSTGKVGIDPQAMDKLQALRDRLGAPLMLNSAYRSPEHNRAEGGAPASEHLKARAFDVSMINHDPAEFEAAARAVGFTGFGFYRRNNFIHVDIGPAREWGNRWFDRVPHGAPLRPAPRFSPPPKLRPETLAEDRGARGTALGAGGGVALIGALGNVVGDLNPTAQAIAFGGAIVLAASLAYLIRDKIREWA | failed |
| AIANSLVRRSAQQLSLWRTYCIKHNASEAASPGRNAGRPNYEEFIGRHQRQAQCSIVVQVSSEKSYEELYNYCSSFGSIMGAHHYCVRQDETLHYILLEYATSDEAAAAIGAGVTNGELSGVPVRSPFLWFRAAGGGRRSPKLVANTAPALLSLDGTRQVDQRHLLGLLRGAADIEEQVQQLYEHTRLNELGIRMRFLAALQVQQAIAGMFPAAQAQPFGSSVNGFGRMGCDLDLILRFDSDMGAKIPLEAAVPSRLVYHTKENLSNGRSQTQRHMECFGDMLHLFLPGVCHVRRILQARVPIIKYHHEHLDLEVDLSMSNLTGFYMSELLYMFGEMDPRVRPLTFTIRRWAQTCGLTNPSPGRWISNFSLTCLVMFFLQQLRQPILPTIGALAKAAEPGDSRVTEDGINCTFTRNVDRLGFRSRNQSSLSELLLQFFEFYSQFDFHNRAISLNEGKPLSKPDHSAMYIVNPLEQLLNVSKNVSLEECERLRIEVRNAAWVLESEVENASVPEGDGQELSCGLLNLFKHPEKAVIRPNMFFKPRMVEVSDLFEQKEAGATSSSTPPTPAITYKSASVRQQVQSIKAATRSELKQLRGSGSSVPTSSPNNRRRS | failed |
| MPSENPIGKTMKSIDEQSLHNARRLFESGDIDRIEVGTTAGLQQIHRYLFGGLYDFAGQIREDNISKGGFRFANAMYLKEALVKIEQMPERTFEEIIAKYVEMNIAHPFLEGNGRSTRIWLDLVLKKNLKKVVNWQNVSKTLYLQAMERSPVNDLELRFLLKDNLTDDVDNREIIFKGIEQSYYYEGYEKG | not failed |
| MIAKEFETFLLGQEETFLTPAKNLAVLIDTHNADHATLLLSQMTYTRVPVVTDEKQFVGTIGLRDIMAYQMEHDLSQEIMADTDIVHMTKTDVAVVSPDFTITEVLHKLVDESFLPVVDAEGIFQGIITRKSILKAVNALLHDFSKEYEIRCQ | not failed |
| MVGVRMTKKVLIVEDNELNMKLFHDLLEAQGYETLQTREGLSALSIARENKPDLILMDIQLPEISGLEVTKWLKEDDDLAHIPVVAVTAFAMKGDEERIREGGCEAYISKPISVVHFLETIKRLLERQPA | not failed |
| MPTICEFLGYKVYMFYQDHSPPHIHVIGKGFRAALSIPEGKLLAGTLPRRVQGVAKMWVRQEATALMQNWLRAEAGEVLQQVKPPEGWLEHHHHHH | failed |
| MNTHYVGPVLYTPKENVSEKLLKLFDADQPIIFCYTARFYDNVGESGKAIFDNMIKIADKIDASIIISTGNKKDELLALDIASKELKSGKVSIVDYVPLDMAYEKSDLVIHHGGHGSCLAQFYYGVPSVIIPTHTEREYNARMCEKLHVGKMLPRRELNSANLKNCINDVLNDITYKKSVRDWKEKVSGLEHHHHHH | failed |
| MADGATAVRRGLSGATRLSARFTADAETGTRQGMQALPTSRRLCASLRSLPERALAMLPAVVLALLPVIAMLLALAPGNARVAEDCALRVEGQARHADDQRIMSTVRALAQALGEVAQATPPDEREAKLIRSISPVRYGEGPWDYVILSRGTVHLYTPGMEGAAGVDFANATDARGVPFVQEMQSRAVLGGGFTEWTARRADGSTETRRVYSLVVPGTEYWLGAWTTPDGATTAKNEARNGVLITADHAAHRAALWGIMAGLPAALVLHRLLTASQRLRQEKDRR | failed |
| MEEPEFQAYVGPRPFEQEDKFIFFGRDREARDLLSLVIAHNLVLVYAQSGAGKTSLINAGLIPLLKENRFEVFPVARVKGTPLRNIKTDEISNIYVLNTLTSWAEDEYDVERLTKMKLVDFLNEQERLQDEDGIPLPRAVIFDQFEEIFSLYQDRWKDREGFFEQISAALETDPLLRVVFVIREDFIAQLDPYVELLPERLRTRFHIERLRREAALLAIKEPLRDTGRSFAEGVAEKLVDDLLKIRVETTPGETTEVTGEFIEAVQLQVVCQNLWRELPPDVKQITFHHLKTYGNVEQELYRFYEEAIRTAAATAHIDEESLRRLFGEVLITTMGTRGMVYRAQESTGGIPNTAIDVLESMHLIRAEWRAGARWYELTHDGFIKPILSSNRVFNDELAEKERAEKERIEKERIEKEWAEKEWAEKERLEKERAEKERLEKELRAEKELAESKQLFYKRLAAISFLAILLALVAVFEWHQAKENAEEARASDLNLNSALLQGDPRNLDKSVLLAIESLKIHITSTADHLIRQGLLSMPHRVVILKHYSDVNNVVFSPDGKYVATASNDNTSRLWDVSTGKQIFVLNHTDPVRNVVFSPDGKYVATASADKTAGVWNTTTGEGISVLNHTGRVNNVVFSPDGKYIATASDDNTSRLWDTATGKQIFVLNQTDPVRNVVFSPDGKYIATASADNTSRLWDTTTGKQIFDMKHDGPVNIVVFSPDGKYVATASADKKARLWNATTGKKIFDMKHDSGINTVVFSPDGKYIVTASDDKTAGVWNTTTGKKIFDMKHDGSVNTVVFSPDGKYIATASADNTSRLWDTATGEKIFFLNHYGWVNTVVFSPDGKYVATASADKTAHLWDVSTGKQISYLRHDSGVNNVVFGPDGKYVVTASADKTADVWNTTTGEKIFVLNHTGRVNNAVFSPDGKYIATASADNTSRLWDTTTGKQIFVLNQTDPVRNVVFSPDRKYIATASDDNTSRLWDTATGKQILVLNHDGPVNTVVFSSDGKYIATASDDNTSRLWDTATGEEIFVLNHTDRVNNVVFSPDGKYIATAGDDNTSRLWGTATGEKIFDMKHDGPVNNVVFSPDGKYVATAGYDNTACLWDTATGEKIFVLNHAGRVNTVVFSPDGKYIATASADKARLWNATTGKQISYLRHDSGVNNVVFSPDGKYIATASVDKTARLWTAKLWISDTEDLIDEANNRLTRNLKPEEWKEYMGDKPYHKRFPNLP | failed |
| MAQKTLLIITDGIGYRKDSDHNAFFHAKKPTYDLMFKTLPYSLIDTHGLSVGLPKGQMGNSEVGHMCIGAGRVLYQDLVKISLSLQNDELKNNPAFLNTIQKSPVVHLMGLMSDGGVHSHIEHFIALALECEKSHKKVCLHLITDGRDVAPKSALTYLKQMQNICNESIQIATISGRFYAMDRDKRFERIELAYHSLMGLNHTPLSPSEYIQSQYDKNITDEFIMPACFKNYCGMQDDESFIFINFRNDRAREIVSALGQKQFSGFKRQVFKKLHIATMTPYDNTFPYPVLFPKESVQNTLAEVVSQHNLTQSHIAETEKYAHVTFFINGGVETPFKNENRVLIQSPKVTTYDLKPEMSAKEVTLAVLEQMKLGTDLIIVNFANGDMVGHTGNFEASVKAVEAVDACLGEILSLAKKLDYAMLLTSDHGNCERMKDENQNPLTNHTAGSVYCFVLGDGVKSIKNGALNNIASSVLKLMGLKAPATMDEPLF | failed |
| MGSSHHHHHHSSGRENLYFQGVKSEDQLVHICSREEWRTAEREGSRVPATFRADGFVHLSTPAQVHLPANRLFAGRTDLVLLRLDPTALGAPVKWEPGVPADPASMLFPHLYGPLPVAAVTGVEEYRPDADGTFPARR | not failed |
| VRRIKLGSQGLEVSAQGLGCMGLSAFYGTPKPETEAIALIHHAIHSGVTFLDTSDIYGPETNELLLSKALKDGVREKVELATKYGIRYAEGKVEFKGDPAYVRAACEASLMRVDVACIDLYYQHRIDTRVPIEITIGELKKLVEEGKIKYIGLSEASASTIRRAHAVHPITALQIEWSLWSRDVEEDIIPTCRELGIGIVAYSPLGRGFFASGPKLVENLDNNDVRKTLPRFQQENLDHNKILFEKVSAMSEKKGCTPAQLALAWVHHQGDDVCPIPGTTKIENLNQNIGALSVKLTPEEMSELESLAQP | failed |
| MDGRRMVQGLLTASLLTSIGGDLEVLASRMDLQFQRPVYTGETLVCELTVVSADPHTDGGVALVGDVAVRRVNRDDNSGQADTAAPLEHHHHHH | failed |
| MTCHNAAGALEPTGSAAKTLPDGLHALMTAEELAFFARFGRLREVSAGQSLFERGAVGTQMYIVVSGQIDLDFGEDLMLKHLGPGEFFGELGLLIGDHARSAGASASTDSRLIELAHDDFQRLVDQDPSMVAHFLRRSIVRVVNNEQLLIRQLRRRNHDLEAALDNLYVTSHQLNHTEELSRTDELTGLHNRRGLALHLQECRRAGHVPGVGLILIDCDRFKRINDEFGHLAGDRVLQNVAHALRSVIAEGDLACRLGGDEFCVLVAQGTSELVHHIGECIVRAVEARLCNGQGEQGCSVSVGSCMIDADAAWNDWYTLADSALYEAKRQGGNVLCMQETLALDQPPASGHR | failed |

Source: a protein production outcome set (Wang et al. 2014)
